This is an account of results in article doi:10.1101/2020.04.16.045419 (bioRxiv, 2020).

B1: Sb#62 (VHH)
VHH: QVQLVESGGGSVQAGGSLRLSCAASGTIADIKYLGWFRQAPGKEREGVAALMTRWGSTYYADSVKGRFTVSLDNAKNTVYLQMNSLKPEDTALYYCAAANYGANYPLYSQQYSYWGQGTQVTVS
B2: Sb#65 (VHH)
VHH: B1 VHH with D30H, R54K, S57Q, N100S, Y105F, Y108K, S109A, Q110S, Q111D
B3: Sb#63 (VHH)
VHH: B1 VHH with T27S, A29S, D30S, S57M, Y105E, Y108Q, S109Y, Q110T, Q111H, S113N
B4: Sb#53 (VHH)
VHH: QVQLVESGGGSVQAGGSLRLSCAASGQISHIKYLGWFRQAPGKEREGVAALITRWGQTYYADSVKGRFTVSLDNAKNTVYLQMNSLKPEDTALYYCAAADYGASDPLWFIHYLYWGQGTQVTVS
B5: Sb#49 (VHH)
VHH: QVQLVESGGGSVQAGGSLRLSCAASGSIGQIEYLGWFRQAPGKEREGVAALNTWTGRTYYADSVKGRFTVSLDNAKNTVYLQMNSLKPEDTALYYCAAARWGRTKPLNTYYYSYWGQGTPVTVS
B6: Sb#48 (VHH)
VHH: QVQLVESGGGLVQAGGSLRLSCAASGFPVSQSVMAWYRQAPGKEREWVAAIYSKGQYTHYADSVKGRFTISRDNAKNTVYLQMNSLKPEDTAVYYCNVKDAGSSYWDYDYWGQGTQVTVS
B7: Sb#66 (VHH)
VHH: QVQLVESGGGSVQAGGSLRLSCAASGSIQAITYLGWFRQAPGKEREGVAALVTWNGQTYYADSVKGRFTVSLDNAKNTVYLQMNSLKPEDTALYYCAAADWGYDWPLWDEWYWYWGQGTQVTVS
B8: Sb#51 (VHH)
VHH: QVQLVESGGGLVQAGGSLRLSCAASGFPVYQGEMHWYRQAPGKEREWVAAIRSTGVQTWYADSVKGRFTISRDNAKNTVYLQMNSLKPEDTAVYYCRVWVGTHYFGQGTQVTVS
B9: Sb#52 (VHH)
VHH: QVQLVESGGGSVQAGGSLRLSCAASGNIQRIYYLGWFRQAPGKEREGVAALMTYTGHTYYADSVKGRFTVSLDNAKNTVYLQMNSLKPEDTALYYCAAAYVGAENPLPYSMYGYWGQGTQVTVS
B10: Sb#64 (VHH)
VHH: QVQLVESGGGSVQAGGSLRLSCAASGEIESIFYLGWFRQAPGKEREGVAALYTYVGQTYYADSVKGRFTVSLDNAKNTVYLQMNSLKPEDTALYYCAAASYGAAHPLSIMRYYYWGQGTQVTVS
B11: Sb#58 (VHH)
VHH: QVQLVESGGGSVQAGGSLRLSCAASGNISTIEYLGWFRQAPGKEREGVAALYTWHGQTYYADSVKGRFTVSLDNAKNTVYLQMNSLKPEDTALYYCAAARWGRHMPLSATEYSYWGQGTQVTVS
B12: Sb#55 (VHH)
VHH: QVQLVESGGGSVQAGGSLRLSCAASGKIWTIKYLGWFRQAPGKEREGVAALMTRWGYTYYADSVKGRFTVSLDNAKNTVYLQMNSLKPEDTALYYCAAANYGSNFPLAEEDYWYWGQGTQVTVS
B13: Sb#67 (VHH)
VHH: QVQLVESGGGSVQAGGSLRLSCAASGSISSITYLGWFRQAPGKEREGVAALVTYSGNTYYADSVKGRFTVSLDNAKNTVYLQMNSLKPEDTALYYCAAATWGHSWPLYNDEYWYWGQGSQVTVS
B14: Sb#50 (VHH)
VHH: QVQLVESGGGSVQAGGSLRLSCAASGYIDKIVYLGWFRQAPGKEREGVAALYTLSGHTYYADSVKGRFTVSLDNAKNTVYLQMNSLKPEDTALYYCAAATEGHAHALYRLHYYWGQGTQVTVS
B15: Sb#69 (VHH)
VHH: QVQLVESGGGSVQAGGSLRLSCAASGSISSITYLGWFRQAPGKEREGVAALNTFNGTTYYADSVKGRFTVSLDNAKNTVYLQMNSLKPEDTALYYCAAATWGYSWPLIAEYNWYWGQGTQVTVS
B16: Sb#71 (VHH)
VHH: B15 VHH with N52K, F54Q, N55A, T57F, T100N, I108Y, A109E, E110A, Y111D, N112D
B17: Sb#56 (VHH)
VHH: QVQLVESGGGSVQAGGSLRLSCAASGNISQIHYLGWFRQAPGKEREGVAALNTDYGYTYYADSVKGRFTVSLDNAKNTVYLQMNSLKPEDTALYYCAAAYYFGDDIPLWWEAYSYWGQGTQVTVS
B18: Sb#59 (VHH)
VHH: QVQLVESGGGSVQAGGSLRLSCAASGNIESIYYLGWFRQAPGKEREGVAALWTGDGETYYADSVKGRFTVSLDNAKNTVYLQMNSLKPEDTALYYCAAAAWGNSAPLTTYRYYYWGQGTQVTVS

Substitutions are numbered along the chain they refer to.

This test has as its target SARS-CoV-2 RBD construct consisting of residues Pro330-Gly526 fused to Venus YFP (RBD-vYFP) (SARS-CoV-2, UniProt P0DTC2).
B1: the binding result is given as “binds”.

For the molecule B2, the binding result was “binds”.

As to B3, the binding result is listed as “binds”.

As for B4, the binding result is on record as “binds”.

As to B5, the binding result is listed as “binds”. For the molecule B6, the binding result is “binds”. The result for B7 reads “binds”; that for B8, “binds”; that for B9, “binds”. Consider B10, for which the binding result is on record as “binds”. For B11, the binding result is reported as “binds”. Take B12: the binding result is recorded as “binds”. For B13, the binding result is “binds”. Take B14: the binding result is reported as “binds”.

With B15, the binding result is on record as “binds”. B16: the binding result is recorded as “binds”.

As to B17, the binding result is “binds”. For B18, the binding result is “binds”.
